Assay results taken from the nanobody polyreactivity screen of Harvey et al. (2022).

Experiment: yeast display, Sf9 membrane polyspecificity reagent, FACS + sequencing; frameworks hold sequencing errors
Outline: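 Sorting gates, low and high (top ~1%), were placed on anti-HA fluorescence to track expression and on streptavidin fluorescence to track reagent binding. A clone's polyreactivity label is taken from the gate it came out of. The reagent was 10% biotinylated, detergent-solubilized Sf9 membrane, applied for 1 hour at 4 °C to galactose-induced yeast display cells.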

| Sequence | polyreactivity (PSR sort gate) |
| --- | --- |
| QVQLGESGGGLVQAGGSLRLSCAASGLILYGYAMGLYRPAPGKERELVATITIGGSTYYADSVKGRFTISRDNAKNTVYLQMNRLNPEDTAVYYCAAEDTLAGSVARFGEYDYWGQGSQVTVSS | low polyreactivity |
| QVQLGESGGGLVQAGGSLRLSCAASGRIFNVNVMGWYRQAPGKDMELVAAITSGGSTNYADSVKGRFTISRDNAKNTVYLQMNSLKPEDTAVYYCAKDYQYGFGEYPYDYWGQGTQVTVSS | low polyreactivity |
| QVQLGESGGGLVQAGGSLRLSCAASGRIFSTYVMGLYRQAPGKERELVAAITRGGSTNYADSVKGRFTISRDNAKNTVYLQMNSLKPEDTADYYCNAQRRGTYYWGQGTQVTVSS | high polyreactivity |
| QVQLGESGGGLVQAGGSLRLSCAASGRIIYTNAMGWYRQAPGKETELVAAINRSGGITYYADSVKGRFTISRDNAKNTVYLQMNSLKPEDTAVYYCAKDYSWASYKHDYWGQGTQVTVSS | low polyreactivity |
| QVQLGESGGGLVQAGGSLRLSCAASGRTFGLKAMGWYRQAPGKERELVAAINWRGTSTYYADSVKGRFTISRDNAKNTVYLQMNSLKPEDTAVYYCAARRSVGGYGYWGQGTQVTVSS | high polyreactivity |
| QVQLGESGGGLVQAGGSLRLSCAASGRTFILNAMGWYRQAPGKERELVAAISWSGGSTYYADSVKGRFTISRDNAKNTVYLQMNSLKPEDTAVYYCAAVTYAYLFHTYDYWGQGTQVTVSS | low polyreactivity |
| QVQLGESGGGLVQAGGSLRLSCAASGRTFYWYDMGWYRQAPGKERELVAAITRSGGSTDYADSVKGRFTISRDNAKNTVYLQMNSLKPEDTAVYYCNADYEVSSQRPAFDYWGQGTQVTVSS | low polyreactivity |
| QVQLGESGGGLVQAGGSLRLSCAASGSIFKVNVMGWYRQEPGKERELVAAISRSGGNTYYADYVKGRFTISRDNAKNTVYLKMNSLKPEDTAVYYCAKDRRYYKAYDYWGQGTQVTVSS | low polyreactivity |
| QVQLGESGGGLVQAGGSLRLSCAASGSIFTFNTMGRYRQAPGKERELVATISSGGRTSYADSVKGRFTISRDNAKNTVYLQMNSLKPADTAVYYCNKGYYGYTYVESNYWGLGTQVTVSS | low polyreactivity |
| QVQLGESGGGLVQAGGSLRLSCAASGSIIQQYAIGWYRQAPGKERELVAAISWGDGSTYYADSVKGRFTISRDNAKNTVYLQKNSLKPEDTAVYYCNAYASAPLWSLEDDYWGQGTQVTVSS | low polyreactivity |
| QVQLGESGGGLVQAGGSLRLSCAASGSISTYYPMGWYRQATGKERELVASITSRASTNYADSVKGRFTISRDNAKNTVYLQMNSLKPEDTAGNYCNADQRDYGSYVTKLDYWGQGTQVTVSS | low polyreactivity |
| QVQLGESGGGLVQAGGSLRLSCAASGSTFAKYVMGWYRQAPGKERELVAAISRRGSSTYYADSVKGRFTISRDNAKNTVYLQMNSLKPEDTAVYYCNAGSFSRKARRYDYWGQGTQVTVSS | high polyreactivity |
| QVQLGESGGGLVQAGGSLRLSCAASGSTFNENAMGWYRQAPGKERELVAAISNDGSTTYADSVKGRFTISRDNAKNTVYLQMNSLKPEDTALYYCNAVSYIDTQSSLGDSWGQGTQVTVSS | low polyreactivity |
| QVQLGESGGGLVQAGGSLRLSCAASGSTFVGSAMGWYIQAPGKDRELVAAISYSGGSTYYADSVKGRFTISRDNAKNTVYLQMNSLKPEDTAVYYCAAEWSRHYYYGPRYHYWGQGTQVTVSS | low polyreactivity |
| QVQLGESGGGLVQAGGSLRLSCAASGSTLYPYAMGWNRQATGTERELFAAISWSGTRTYYADSVKGRFTISRDNAKNTVYLQMNSLKQEDTAVYYCAKSRTRYPSNTKYDYWGQGTQVTVSS | high polyreactivity |
| QVQLGESGGGLVQAGGSLRLSCADSGFTFASNAMGWYRQAPAKERELVAAISTSGGSTYYADSVKGRFTISRDNAKNTVYLQMNSLKPEDTAVYYFAVAVNGVSRIKYYYWGQGTQVTVSS | high polyreactivity |
| QVQLGESGGGLVQAGGSLRLSCASSGRILNINSMGWYRQAPGKERELVAAITWRGGRTFYADSVKGRFTISRDYAKNKVYFEMNSLKPEDTAVYYCAASSNTWYPTGYYWGQGSQVTVSS | high polyreactivity |
| QVQLGESGGGLVQAGGSLRLSGAASGRTFNDYTMGWYRPAPGKERELVAAISSSGVLTYYADSVKGRFTISRDNAKYTVYLQMNSLKPEDTAVDYAKRAGYDRRWTYDYRGQGTQVTVSS | high polyreactivity |
| QVQLGESGGGLVQAGGSLRLTCAASGFTFRGYAMGWYRQAPGKEWELVAANSRRGGSTYYADSVKGRFTISRDNAKYTVYLQMNSLKPEETAVYYCNAVGRFYFRFPPNNEYDYWGQGTQVTVSS | high polyreactivity |
| QVQLGESGGGLVQAGGSLRLTCAASGYIFISDAMGLYRQAHGKEREFVAAITGDGGSTYADSVKGRFTISRYNAKNTVYLQMNSLKPEDTAVYYCAAEGQLFDLYDYWGQGTEVTVSS | low polyreactivity |
| QVQLGESGGGLVQAGGSLSLSCAASGSIFRNYAMGWYRPAPGKEWELVAAITRGGPTNYADSVKGRVTISRDHAKNTVYLQMNRQKPEDTAVYYCNAAWRLGWTHWETTRYVYWGQGTHVTVSS | high polyreactivity |
| QVQLGESGGRLVQAGGSIRLTCAASGRTFVTYAMAWSRQAPGNEWELVAGIRPGGSTYYADSVKGRFTISRDNAKNTVYLQMNSLKPEDTAVYYCAASRTSWQGYNYWGQGTQVTVSS | high polyreactivity |

| Sequence | polyreactivity (PSR sort gate) |
| --- | --- |
| QVQLGESGGRLVQAGGSLRLSCAASGRTIVINAMGWYRKEPGKERELVAAISRGGSTNYADSVKGRFTISRDNAKNTVYLQMNRLKPEDTAVYYCKADYPNWWSPFDYWGQGTQVTVSS | low polyreactivity |
| QVQLGETGGGLVQAGGSLRLSCAASGFNFGYYVMGWYRQAPGKERELVAAITSGGSKYYADSVKGRFTISRDNAKNTVYLQMNSLKPEDTAVYYCNKYGVVLPGFDEWGQGTQVTVSS | high polyreactivity |
| QVQLHESGCGLVQAGGSLRLSCAASGTISYAGPMGWYRPAPGNEREFVAGIGVGSNTNYADSVKGRYTIIRDNATNTVYLQMNSLKPEDTAVYYCAVGGYAPLGRPYWGQGTQVTVSS | low polyreactivity |
| QVQLHESGCVLVQAGGSLRLRCAASRNISGSSDLGWYHQAPGKEREFVASITSGGTTYYADSVKVRFTISRDNAKNTVYLQMNSLKPEDTAVYYCAVGDPADAEFGYWGQGTQVTVSS | low polyreactivity |
| QVQLHESGGGLCRRAAASSGAASGTISFLYYMGWYRQAPGQEREFVAGINNGTTTNYADSVKGRFTNSRDNAKNTVYLQMNSLKPEDTAVYYCAVRKPYKATTASGFEYWGQGTQVTVSS | high polyreactivity |
| QVQLHESGGGLVQAGGSLRLSCAASGTISYAGPIGWYRQAPGKEREFVAGIGVCSNTNYADSVKGRYTIIRDNAKNTVYLQMNSLKPEDTAVYYCAAETDSWVGGYSYASLDYWGQGTQVTVSS | low polyreactivity |
| QVQLHESGGGLVQAGGSLRLSCAASGTISYAGPMGWYRQAPGKEREFVAGIGVGSNTNYADSVKGRYTIIRDNAKNTVYLQMNSLKPEDTAVYYCAVGGYAPLGRPDWGQGTQVTVRS | low polyreactivity |
| QVQLHESGGGLVQAGGSLRLSCAASGTISYAGPMGWYRQAPGKEREFVAGIGVGSNTNYADSVKGRYTIIRDNAKNTVYLQMTSLKPEDTAVYYCAVGGYAPLGRPYWGQGTQVTVSS | low polyreactivity |
| QVQLHESGGGLVQARGSLRLSCAASGTSSNAGPMGWYRQAPGKEREFVAGIGVGSNTNYADSVKGRYTIIRDNAKNTVYLQMNSLKPEDTAVYYCAVGGYAPLGRPYWGQGTQVTVSS | low polyreactivity |
| QVQLHESGGGLVQSGGSLRLICAASGSISHYIFMGWYRQAPGKEREFVAGIGYGGTTNNADSVKGRFTISRDNAKNTVYLQMNSLKPEDTAMYYCAAREATEFYLDYWGQGTQVTVSS | low polyreactivity |
| QVQLHESGRGLVQAGGSLRLSCAASGTISYAGQMGWYRQAPGKEREFVAAIGVGSNTNYADIVKGRYTIIRYNAKNSVYLQIISLKPEDTAVYYCAVGCYAPLGRPFWGQGTQVTVSS | low polyreactivity |
| QVQLHESGVGLVQAGGGLRLSCAATGSISSTGFMGWYRQAPGKEREPVAAIAPGTTTYYADSVKGRFTISRDNAKNTVYLQMNSLRPEDTAVYYCAVFTDNRVAFLYWGQGTQVTVSS | low polyreactivity |
| QVQLIESGGGLVKAGGSLRLSCAASGSIFYRNTMGWYRQAPGKERELVARISWSGGRTYYADSVKGRFTISRDNAKNTVYLQMNSLKPEDTAVYYCAASTYGQRGTSYGYWGQGTQVTVSS | low polyreactivity |
| QVQLIESGGGLVQAGGSLRLSCAASGFTFYYNTMGWYRQAPGKERELVAAITRSVGSTYYADSVKGRFTISRDNAKNTVYLQMNSLKPEDTAVYYCAARRLGYYRKVKELDYWGQGTQVTVSS | high polyreactivity |
| QVQLIESGGGLVQAGGSLRLSCAASGSIFAANAMGWYRQAPGKEREFVASISYTGASTYADSVKGRFTISRDNAKNTVYLQINSLKPEDTAVYYCAKDGYWTGLDPYYYWGQGTQVTVSS | low polyreactivity |
| QVQLKERGGGLVQAGGSLRLSCAAIGPISRRSTMGWYRQAPGKERELVTDITRGTNTNYADSVKGRFTISRDNAKNTEYLQMNSLKPEDTAVYYCEAYGVLKPSRGDAVFHRYWGQGTQVTVSS | low polyreactivity |
| QVQLKESGGCLVPSRGSLRQSCAASGSISGPHVKGWYRQAPGKEREFVAAINVGANTYYADNVKGRFTISRDNANNPGYLQMNSLKPEDTAVYFCAAVYFGDIGHEYWGQGTQVTVSC | low polyreactivity |
| QVQLKESGGGLVQSGGSLRLSCAASGNIVDADIMGWYRQAPGKERELVASITDGGSTNYADSVKGRFTISRDNAKNTVYLQMNSLKPEDTAVYYCAAIAYPDIPTYFDYDSEYFYWGQGTQVTVSS | low polyreactivity |
| QVQLLDSGGGLVQAGGSLSLSCAASGSSFRYYAMGWYRPAPRKEREFVADISWSGSSTYYADSVKGRFTISRDNSKITVYLLMNSLTPEDTAVYYCAARYRYRSSSYDYWGQGTQVTVSS | high polyreactivity |
| QVQLLESCVGLVHAGGSLRLSCAASGFIFGTNAMGWSRQAPGKEREWVAAINGRGGGTYYADSVKGRFTISRDNAKNTVYLQMNSLKQEDTAVYYCAASRFDYWGQGTQVTVSS | low polyreactivity |
| QVQLLESGAGLLQAGGSLRLSCAASGRTFLKYAMGWYRQAPGKERELVAAISRGDSTYYADSVKGRFTISRDNAKNTVYLQMNSLKTEDTAVYFCAKPGYYVRYGYWGQGTQVTVSS | high polyreactivity |
